From paper PMC11753358 (Oncogene, 2024)

Target: human EphA2-Fc, biotinylated (human, UniProt P29317 24-537, biotin (EZ-Link Sulfo NHS-LC-LC-Biotin, 1:1 molar ratio))
Test: BLI

Sequence of human EphA2-Fc, biotinylated (P29317 24-537): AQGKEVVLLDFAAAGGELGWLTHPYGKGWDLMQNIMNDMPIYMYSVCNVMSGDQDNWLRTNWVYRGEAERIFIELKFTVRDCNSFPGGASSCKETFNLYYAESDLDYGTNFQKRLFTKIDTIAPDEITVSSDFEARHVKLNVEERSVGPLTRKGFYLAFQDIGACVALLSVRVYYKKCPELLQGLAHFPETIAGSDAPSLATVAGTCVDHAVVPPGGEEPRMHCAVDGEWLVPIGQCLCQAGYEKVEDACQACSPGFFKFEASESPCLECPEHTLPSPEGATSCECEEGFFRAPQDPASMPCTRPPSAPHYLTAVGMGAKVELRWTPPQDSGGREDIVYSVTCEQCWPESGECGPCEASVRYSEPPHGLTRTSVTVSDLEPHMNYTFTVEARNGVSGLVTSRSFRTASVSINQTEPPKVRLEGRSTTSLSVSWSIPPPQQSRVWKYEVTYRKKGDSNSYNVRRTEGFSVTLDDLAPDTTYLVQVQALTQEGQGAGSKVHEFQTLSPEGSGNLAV

- binding result: binds
B1: human ephrin-A1-Fc (recombinant soluble ephrin-A1 fused to human IgG1Fc) (Fc fusion, UniProt P20827 19-182, looked up)
chain: DRHTVFWNSSNPKFRNEDYTIHVQLNDYVDIICPHYEDHSVADAAMEQYILYLVEHEEYQLCQPQSKDQVRWQCNRPSAKHGPEKLSEKFQRFTPFTLGKEFKEGHSYYYISKPIHQHEDRCLRLKVTVSGKITHSPQAHDNPQEKRLAADDPEVRVLHSIGHS
